Data taken from US20240033244A1, “COMPOSITIONS AND METHODS FOR INHIBITING YTHDF1” (SHANGHAI INSTITUTE OF MATERIA MEDICA, CHINESE ACADEMY OF …, priority 2020, published 2024).
Positions count from the first letter of the chain named.

Tests used:
B16-OVA melanoma = experiment: B16-OVA tumor growth in wild-type mice; type: in vivo, mouse; conditions: 5×10^5 B16-OVA in C57BL/6 mice, 10 μM i.v. 9 days after implantation (FIG. 19)
His-YTHDF1 (361-559) = target: T1, His-YTHDF1 (361-559) (UniProt Q9BYJ9 SEQ:40-238); experiment: AlphaScreen; 20 mM Hepes pH 7.4, 150 mM NaCl, BSA, TritonX-100; binding inhibited by SAA; conditions: tags: His; label: 5'-biotin
T1 sequence: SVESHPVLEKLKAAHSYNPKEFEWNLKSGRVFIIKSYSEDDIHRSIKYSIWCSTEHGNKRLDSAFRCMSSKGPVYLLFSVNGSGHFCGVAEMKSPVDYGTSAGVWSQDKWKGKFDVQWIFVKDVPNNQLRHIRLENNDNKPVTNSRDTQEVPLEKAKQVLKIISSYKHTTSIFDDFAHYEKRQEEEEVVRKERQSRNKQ
Method: Then 10 nM biotinylated m⁶A-containing mRNA (5′-biotin-[…] (m⁶A) CUGUG-3′) (SEQ ID NO: 15) was added to bind with YTHDF1 (361-559), and unbiotinylated m⁶A-containing mRNA was used as the positive control. Before Alpha signal detection, streptavidin donor beads and anti-His acceptor beads were added into the white assay plate in subdued light (OptiPlate™-384, PerkinElmer) and incubated at 4° C. for 1 hour to ensure sufficient binding between biotin tag and streptavidin donor beads, as well as that between His tag and anti-His acceptor beads. Then the Alpha signal was detected on Envision Readers (PerkinElmer).

YTHDF1 (361-559) Y397A = target: T2, YTHDF1 (361-559) Y397A (UniProt Q9BYJ9 SEQ:3-201); experiment: FP; binding seen through SAA inhibition assay; affinity not given; conditions: tags: GST tag removed; label: 5'-FAM
T2 chain: T1 sequence with Y37A

YTHDF1 (361-559) R506A = target: T3, YTHDF1 (361-559) R506A (UniProt Q9BYJ9 SEQ:3-201); experiment: as above; conditions: tags: GST tag removed; label: 5'-FAM
T3 chain: T1 sequence with R146A

YTHDF1 (361-559) C412A = target: T4, YTHDF1 (361-559) C412A (UniProt Q9BYJ9 SEQ:3-201); experiment: as above; conditions: tags: GST tag removed; label: 5'-FAM
T4 chain: T1 sequence with C52A

YTHDF1 (361-559) K395A = target: T5, YTHDF1 (361-559) K395A (UniProt Q9BYJ9 SEQ:3-201); experiment: as above; conditions: tags: GST tag removed; label: 5'-FAM
T5 chain: T1 sequence with K35A

YTHDF1 (361-559) N378A = target: T6, YTHDF1 (361-559) N378A (UniProt Q9BYJ9 SEQ:3-201, N378A); experiment: FP; value only in figure; affinity not influenced vs wild type; conditions: tags: GST tag removed; label: 5'-FAM
T6 sequence: T1 sequence with N18A

YTHDF1 (361-559) H528A = target: T7, YTHDF1 (361-559) H528A (UniProt Q9BYJ9 SEQ:3-201, H528A); experiment: as above; conditions: tags: GST tag removed; label: 5'-FAM
T7 sequence: T1 sequence with H168A

YTHDF1 (361-559) F480A = target: T8, YTHDF1 (361-559) F480A (UniProt Q9BYJ9 SEQ:3-201, F480A); experiment: as above; conditions: tags: GST tag removed; label: 5'-FAM
T8 sequence: T1 sequence with F120A

YTHDF1 (361-559) F382A = target: T9, YTHDF1 (361-559) F382A (UniProt Q9BYJ9 SEQ:3-201, F382A); experiment: as above; conditions: tags: GST tag removed; label: 5'-FAM
T9 sequence: T1 sequence with F22A

[1] = target: T10, YTHDF1 C-terminal truncation (UniProt Q9BYJ9 SEQ:3-174); experiment: as above; conditions: tags: GST tag removed; label: 5'-FAM
T10 chain: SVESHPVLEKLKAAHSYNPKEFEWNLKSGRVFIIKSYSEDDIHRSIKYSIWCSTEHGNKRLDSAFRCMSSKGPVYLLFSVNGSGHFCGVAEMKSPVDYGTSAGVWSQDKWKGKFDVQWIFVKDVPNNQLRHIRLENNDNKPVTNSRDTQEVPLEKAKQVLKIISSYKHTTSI

YTHDF1 (361-559) W384A = target: T11, YTHDF1 (361-559) W384A (UniProt Q9BYJ9 SEQ:3-201, W384A); experiment: as above; conditions: tags: GST tag removed; label: 5'-FAM
T11 sequence: T1 sequence with W24A

[2] = target: T12, YTHDF1 (361-559), YTH domain (UniProt Q9BYJ9 SEQ:3-201); experiment: FP; value only in figure; 20 mM Hepes pH 7.4, 50 mM NaCl, 0.01% tween 20, 5% glycerol, 4 C; conditions: tags: GST tag removed; E. coli BL21(DE3); label: 5'-FAM
T12 sequence: T1 sequence

Which “tumor growth versus DMSO” value (B16-OVA melanoma) does the source give for `O=C(/C=C/c1ccc(O)c2oc(-c3ccc(O)c(O)c3)cc12)O[C@H](Cc1ccc(O)c(O)c1)C(=O)O` [SAC, Salvianolic Acid C] here?
Its value is “tumor growth was much slower”.

Does UUCUUCUGUGGACUGUG (ssRNA, m6A at position 12 (UUCUUCUGUGG(m6A)CUGUG)) [5'-biotin m6A-containing mRNA] bind (His-YTHDF1 (361-559))?
Result: binds

Does UUCUUCUGUGGACUGUG (ssRNA, m6A at position 12 (UUCUUCUGUGG(m6A)CUGUG)) [5'-FAM m6A-containing mRNA] bind (YTHDF1 (361-559) Y397A)?
Result: binds

Does UUCUUCUGUGGACUGUG (ssRNA, m6A at position 12 (UUCUUCUGUGG(m6A)CUGUG)) [5'-FAM m6A-containing mRNA] bind (YTHDF1 (361-559) R506A)?
Result: binds

Does UUCUUCUGUGGACUGUG (ssRNA, m6A at position 12 (UUCUUCUGUGG(m6A)CUGUG)) [5'-FAM m6A-containing mRNA] bind (YTHDF1 (361-559) C412A)?
Result: binds

Does UUCUUCUGUGGACUGUG (ssRNA, m6A at position 12 (UUCUUCUGUGG(m6A)CUGUG)) [5'-FAM m6A-containing mRNA] bind (YTHDF1 (361-559) K395A)?
Result: binds

Does UUCUUCUGUGGACUGUG (ssRNA, m6A at position 12 (UUCUUCUGUGG(m6A)CUGUG)) [5'-FAM m6A-containing mRNA] bind (YTHDF1 (361-559) N378A)?
Result: binds

Does UUCUUCUGUGGACUGUG (ssRNA, m6A at position 12 (UUCUUCUGUGG(m6A)CUGUG)) [5'-FAM m6A-containing mRNA] bind (YTHDF1 (361-559) H528A)?
Result: binds

Does UUCUUCUGUGGACUGUG (ssRNA, m6A at position 12 (UUCUUCUGUGG(m6A)CUGUG)) [5'-FAM m6A-containing mRNA] bind (YTHDF1 (361-559) F480A)?
Result: binds

Does UUCUUCUGUGGACUGUG (ssRNA, m6A at position 12 (UUCUUCUGUGG(m6A)CUGUG)) [5'-FAM m6A-containing mRNA] bind (YTHDF1 (361-559) F382A)?
Result: binds

Does UUCUUCUGUGGACUGUG (ssRNA, m6A at position 12 (UUCUUCUGUGG(m6A)CUGUG)) [5'-FAM m6A-containing mRNA] bind [1]?
Result: binds

Does UUCUUCUGUGGACUGUG (ssRNA, m6A at position 12 (UUCUUCUGUGG(m6A)CUGUG)) [5'-FAM m6A-containing mRNA] bind (YTHDF1 (361-559) W384A)?
Result: binds

Does UUCUUCUGUGGACUGUG (ssRNA, m6A at position 12 (UUCUUCUGUGG(m6A)CUGUG)) [5'-FAM m6A-containing mRNA] bind [2]?
Result: binds
